Assay results taken from PMC12292926, “PELP1 coordinates the modular assembly and enzymatic activity of the rixosome complex” (Science Advances, 2025).
Blank lines part the entries; values can stand above or below the molecule they belong to.

Columns and labels:
[1] = target: recombinant human histone octamer (human) (UniProt P0C0S8); experiment: SEC; histone chaperone assay: MBP-PELP1 variant and histone octamer mixed at 1:1 or 2:1 in >1.2 M NaCl, dialysed stepwise to 0.3 M NaCl, 10 mM Hepes pH 7.5, 4°C; S200 10/300 gel filtration in the low-salt buffer; SDS-PAGE of fractions
[2] = target: T1, N-terminal 6× His-tagged human SENP3 protease domain (302 to 574aa) (human, UniProt Q9H4L4 302-574); experiment: SEC; purified components mixed at equimolar amounts (20 to 80 μM), 4°C for at least 30 min; S200 10/300 analytical column; SDS-PAGE of fractions; conditions: both partners purified
T1 construct: E. coli codon-optimized gene (Genscript) in pET11a; source: E. coli, purified (His60 Ni resin, S200 gel filtration)

[3] = target: T2, MBP-SENP3^(311–574 C532S), fixed-arm MBP fusion of the SENP3 catalytic domain (human, UniProt Q9H4L4 311-574, C532S); experiment: crystal structure; MBP-SENP3 (311-574, C532S) with 1.5x molar excess of sPELP1 peptide; sitting drop, 0.085 to 0.1 M Hepes pH 7.5, 17 to 20% PEG8000, 4°C; 2.93 Å; conditions: both partners purified
T2 construct: human SENP3 catalytic domain with the three-helix bundle, Glu311-Val574, catalytic-dead C532S; In the PDB model MBP residues are labeled 1 to 370 and SENP3 residues 1311 to 1574; also called MBP(wt)-SENP3; pMALX(wt)-SENP3 (Glu311-Val574/C532S); source: E. coli Rosetta2 (DE3), purified (amylose resin, Superdex200 SEC); not shown: MBP (fixed-arm fusion, pMALX(wt)), N-terminal, kept

[4] = target: T3, exogenous rixosome subcomplex (PELP1, TEX10, WDR18, and SENP3) purified by GFP-TEX10 wild type (human, UniProt Q9NXF1 1-929; Q8IZL8 1-1130; Q9BV38 1-432; Q9H4L4 1-574); experiment: pull-down; GFP-TEX10 rixosome subcomplexes affinity purified from HEK293FT and kept on anti-GFP Sepharose (ATP and low-salt washes); incubated with recombinant ncPRC1.4 (0.177 mg/ml) in 0.2 ml low-salt buffer (50 mM Hepes pH 7.5, 200 mM NaCl, 5 mM MgCl2, 10% glycerol), 1 hour, 4°C; Western blot; conditions: both partners purified
T3 construct: human TEX10, wild type, bait of the subcomplex; human PELP1, exogenous; human WDR18, exogenous; human SENP3, exogenous; copy numbers in this preparation are not measured; also called immobilized TEX10 rixosome subcomplexes; TEX10 subcomplexes; not shown: GFP, N-terminal, kept; copies: + + +
T3 sequence (Q9NXF1 whole entry, chain 1 of 4): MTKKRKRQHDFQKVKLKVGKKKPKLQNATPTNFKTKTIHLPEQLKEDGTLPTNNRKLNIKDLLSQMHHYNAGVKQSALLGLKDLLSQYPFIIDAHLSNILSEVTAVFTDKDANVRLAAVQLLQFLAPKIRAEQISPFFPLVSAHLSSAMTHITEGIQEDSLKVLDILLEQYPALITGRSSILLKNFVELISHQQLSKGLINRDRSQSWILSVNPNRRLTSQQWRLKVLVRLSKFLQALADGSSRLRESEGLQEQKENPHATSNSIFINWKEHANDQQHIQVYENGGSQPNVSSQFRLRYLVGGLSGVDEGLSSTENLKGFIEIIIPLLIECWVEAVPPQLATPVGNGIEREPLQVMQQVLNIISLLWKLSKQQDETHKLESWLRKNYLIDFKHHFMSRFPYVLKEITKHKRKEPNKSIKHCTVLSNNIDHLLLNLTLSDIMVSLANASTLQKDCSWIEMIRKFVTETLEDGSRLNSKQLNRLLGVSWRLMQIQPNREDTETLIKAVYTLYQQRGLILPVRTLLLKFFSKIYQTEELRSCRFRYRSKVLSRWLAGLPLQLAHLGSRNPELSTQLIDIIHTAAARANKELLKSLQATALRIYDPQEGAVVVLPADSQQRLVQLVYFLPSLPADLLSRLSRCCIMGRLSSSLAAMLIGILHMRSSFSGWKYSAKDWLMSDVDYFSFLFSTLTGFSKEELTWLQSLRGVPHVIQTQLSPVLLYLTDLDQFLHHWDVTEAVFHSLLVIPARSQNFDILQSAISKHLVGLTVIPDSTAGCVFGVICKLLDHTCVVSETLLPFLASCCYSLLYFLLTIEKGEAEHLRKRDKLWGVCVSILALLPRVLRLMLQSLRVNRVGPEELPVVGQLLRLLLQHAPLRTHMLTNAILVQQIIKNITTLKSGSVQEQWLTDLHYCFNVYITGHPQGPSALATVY
T3 sequence (Q8IZL8 whole entry, chain 2 of 4): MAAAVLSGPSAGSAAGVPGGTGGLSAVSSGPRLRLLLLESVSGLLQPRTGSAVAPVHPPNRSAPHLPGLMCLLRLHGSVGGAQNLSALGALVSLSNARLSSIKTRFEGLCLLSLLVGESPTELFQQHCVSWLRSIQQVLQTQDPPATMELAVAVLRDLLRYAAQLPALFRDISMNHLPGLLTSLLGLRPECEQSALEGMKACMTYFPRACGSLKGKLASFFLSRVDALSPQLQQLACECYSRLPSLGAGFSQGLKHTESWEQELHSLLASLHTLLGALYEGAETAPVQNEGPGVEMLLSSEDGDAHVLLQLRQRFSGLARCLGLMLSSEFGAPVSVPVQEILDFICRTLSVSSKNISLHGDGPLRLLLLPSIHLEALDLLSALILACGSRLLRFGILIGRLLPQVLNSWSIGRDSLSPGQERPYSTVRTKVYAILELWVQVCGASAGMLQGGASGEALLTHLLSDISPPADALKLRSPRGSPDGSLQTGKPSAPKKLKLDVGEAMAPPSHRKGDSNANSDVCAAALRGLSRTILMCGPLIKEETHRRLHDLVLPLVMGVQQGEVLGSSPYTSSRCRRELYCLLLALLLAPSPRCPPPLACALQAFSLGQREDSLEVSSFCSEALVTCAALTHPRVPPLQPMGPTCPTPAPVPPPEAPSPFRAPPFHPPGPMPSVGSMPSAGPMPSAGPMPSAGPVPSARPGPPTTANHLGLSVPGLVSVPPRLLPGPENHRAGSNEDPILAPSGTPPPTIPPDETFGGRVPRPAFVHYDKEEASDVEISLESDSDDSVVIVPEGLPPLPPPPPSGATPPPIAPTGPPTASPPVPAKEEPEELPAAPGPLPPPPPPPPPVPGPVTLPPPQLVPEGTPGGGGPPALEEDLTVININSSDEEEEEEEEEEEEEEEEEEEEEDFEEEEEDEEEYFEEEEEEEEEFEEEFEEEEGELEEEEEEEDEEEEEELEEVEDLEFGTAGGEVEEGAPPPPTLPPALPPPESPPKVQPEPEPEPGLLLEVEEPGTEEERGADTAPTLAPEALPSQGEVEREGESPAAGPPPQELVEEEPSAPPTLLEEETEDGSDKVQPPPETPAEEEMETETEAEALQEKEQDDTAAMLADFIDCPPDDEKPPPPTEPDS
T3 sequence (Q9BV38 whole entry, chain 3 of 4): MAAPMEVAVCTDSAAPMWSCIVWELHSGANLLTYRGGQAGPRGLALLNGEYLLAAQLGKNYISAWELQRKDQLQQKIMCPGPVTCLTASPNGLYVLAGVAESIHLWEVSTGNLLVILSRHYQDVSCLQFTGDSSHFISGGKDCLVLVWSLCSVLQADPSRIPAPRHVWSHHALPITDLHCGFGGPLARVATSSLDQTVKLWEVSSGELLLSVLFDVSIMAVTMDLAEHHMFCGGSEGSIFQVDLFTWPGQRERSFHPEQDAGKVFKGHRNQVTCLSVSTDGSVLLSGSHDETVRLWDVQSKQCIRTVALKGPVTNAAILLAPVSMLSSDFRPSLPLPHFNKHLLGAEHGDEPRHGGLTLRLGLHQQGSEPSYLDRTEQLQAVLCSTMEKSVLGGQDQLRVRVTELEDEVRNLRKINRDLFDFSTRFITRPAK
T3 sequence (Q9H4L4 whole entry, chain 4 of 4): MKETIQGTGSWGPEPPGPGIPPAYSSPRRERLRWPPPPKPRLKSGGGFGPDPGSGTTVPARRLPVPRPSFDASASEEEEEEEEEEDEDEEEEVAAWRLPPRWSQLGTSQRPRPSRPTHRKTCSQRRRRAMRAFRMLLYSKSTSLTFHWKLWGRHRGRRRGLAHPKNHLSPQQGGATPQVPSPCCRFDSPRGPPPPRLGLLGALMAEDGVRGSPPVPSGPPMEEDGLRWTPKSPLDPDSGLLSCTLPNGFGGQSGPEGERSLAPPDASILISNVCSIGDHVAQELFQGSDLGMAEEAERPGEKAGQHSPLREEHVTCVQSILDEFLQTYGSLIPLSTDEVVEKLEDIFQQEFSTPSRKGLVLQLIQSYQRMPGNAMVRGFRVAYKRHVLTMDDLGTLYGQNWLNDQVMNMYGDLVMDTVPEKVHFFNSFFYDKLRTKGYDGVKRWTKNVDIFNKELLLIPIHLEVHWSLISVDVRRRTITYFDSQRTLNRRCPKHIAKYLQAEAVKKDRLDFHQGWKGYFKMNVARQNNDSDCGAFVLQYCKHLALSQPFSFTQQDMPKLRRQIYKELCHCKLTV

T1 sequence (Q9H4L4 302-574): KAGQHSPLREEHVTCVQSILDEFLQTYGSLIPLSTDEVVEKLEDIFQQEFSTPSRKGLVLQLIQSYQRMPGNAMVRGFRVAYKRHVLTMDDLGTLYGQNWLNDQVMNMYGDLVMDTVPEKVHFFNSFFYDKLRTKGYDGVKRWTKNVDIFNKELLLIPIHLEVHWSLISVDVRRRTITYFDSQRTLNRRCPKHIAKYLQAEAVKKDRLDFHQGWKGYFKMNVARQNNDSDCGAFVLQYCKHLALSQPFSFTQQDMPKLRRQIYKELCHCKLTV
T2 sequence (Q9H4L4 311-574 C532S): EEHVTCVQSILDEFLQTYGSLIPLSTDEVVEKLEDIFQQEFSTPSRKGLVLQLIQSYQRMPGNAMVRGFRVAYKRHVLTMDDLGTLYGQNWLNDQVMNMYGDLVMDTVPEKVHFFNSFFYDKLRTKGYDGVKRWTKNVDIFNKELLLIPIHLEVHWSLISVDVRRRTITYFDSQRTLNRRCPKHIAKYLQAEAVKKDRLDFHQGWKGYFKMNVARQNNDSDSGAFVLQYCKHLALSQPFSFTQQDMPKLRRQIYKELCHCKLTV

Molecule: MBP-PELP1^887–966 (from UniProt Q8IZL8 887-966) (domain or fragment)
- stoichiometry N (copies per histone octamer) [1]: 2

Molecule: MBP-PELP1^800–1130 (from UniProt Q8IZL8 800-1130) (domain or fragment)
- stoichiometry N (copies per histone octamer) [1]: 2

B1: 6×-HIS-MBP-PELP1 761 to 796aa (SENP3 binding motif peptide) (domain or fragment, human, UniProt Q8IZL8 761-796, looked up)
chain: PRPAFVHYDKEEASDVEISLESDSDDSVVIVPEGLP
notes: human PELP1 IDR, residues 761 to 796 with the SLiM; legends and the purification paragraph print 761 to 796aa; also called MBP-PELP1^SLiM; PELP1^SLiM-containing peptide 761 to 796aa; source: E. coli, purified (His60 Ni resin, S200 gel filtration); not shown: MBP, N-terminal, kept
- binding result [2]: binds

Now from value to molecule:

- binding result [3]: binds
B2: sPELP1 peptide (PELP1 residues Ala764-Glu781) (peptide, UniProt Q8IZL8 764-781, looked up)
peptide: AFVHYDKEEASDVEISLE
notes: also called short (s) PELP1; PELP1^SLiM peptide (764 to 781aa); source: synthetic peptide (GenScript)

- binding result [4]: binds
B3: recombinant human noncanonical PRC1.4 complex (RING1B-BMI1-RYBP) (complex)
chain 1: MSQAVQTNGTQPLSKTWELSLYELQRTPQEAITDGLEIVVSPRSLHSELMCPICLDMLKNTMTTKECLHRFCADCIITALRSGNKECPTCRKKLVSKRSLRPDPNFDALISKIYPSRDEYEAHQERVLARINKHNNQQALSHSIEEGLKIQAMNRLQRGKKQQIENGSGAEDNGDSSHCSNASTHSNQEAGPSNKRTKTSDDSGLELDNNNAAMAIDPVMDGASEIELVFRPHPTLMEKDDSAQTRYIKTSGNATVDHLSKYLAVRLALEELRSKGESNQMNLDTASEKQYTIYIATASGQFTVLNGSFSLELVSEKYWKVNKPMELYYAPTKEHK
chain 2: MHRTTRIKITELNPHLMCVLCGGYFIDATTIIECLHSFCKTCIVRYLETSKYCPICDVQVHKTRPLLNIRSDKTLQDIVYKLVPGLFKNEMKRRRDFYAAHPSADAANGSNEDRGEVADEDKRIITDDEIISLSIEFFDQNRLDRKVNKDKEKSKEEVNDKRYLRCPAAMTVMHLRKFLRSKMDIPNTFQIDVMYEEEPLKDYYTLMDIAYIYTWRRNGPLPLKYRVRPTCKRMKISHQRDGLTNAGELESDSGSDKANSPAGGIPSTSSCLPSPSTPVQSPHPQFPHISSTMNGTSNSPSGNHQSSFANRPRKSSVNGSSATSSG
chain 3: MTMGDKKSPTRPKRQAKPAADEGFWDCSVCTFRNSAEAFKCSICDVRKGTSTRKPRINSQLVAQQVAQQYATPPPPKKEKKEKVEKQDKEKPEKDKEISPSVTKKNTNKKTKPKSDILKDPPSEANSIQSANATTKTSETNHTSRPRLKNVDRSTAQQLAVTVGNVTVIITDFKEKTRSSSTSSSTVTSSAGSEQQNQSSSGSESTDKGSSRSSTPKGDMSAVNDESF
notes: human RING1B, full length; human BMI1, full length; human RYBP, full length; also called ncPRC1.4; not shown: SUMO-10xHis, N-terminal, cleaved; copies: + +
